Laboratory results reported in patent US20250367237A1 (TENEOBIO, published 2025).
Positions count from the first letter of the chain named.

T1: human c-Kit, GNNK- isoform, expressed on SEM cells (human, UniProt P10721 26-976)
T1 chain: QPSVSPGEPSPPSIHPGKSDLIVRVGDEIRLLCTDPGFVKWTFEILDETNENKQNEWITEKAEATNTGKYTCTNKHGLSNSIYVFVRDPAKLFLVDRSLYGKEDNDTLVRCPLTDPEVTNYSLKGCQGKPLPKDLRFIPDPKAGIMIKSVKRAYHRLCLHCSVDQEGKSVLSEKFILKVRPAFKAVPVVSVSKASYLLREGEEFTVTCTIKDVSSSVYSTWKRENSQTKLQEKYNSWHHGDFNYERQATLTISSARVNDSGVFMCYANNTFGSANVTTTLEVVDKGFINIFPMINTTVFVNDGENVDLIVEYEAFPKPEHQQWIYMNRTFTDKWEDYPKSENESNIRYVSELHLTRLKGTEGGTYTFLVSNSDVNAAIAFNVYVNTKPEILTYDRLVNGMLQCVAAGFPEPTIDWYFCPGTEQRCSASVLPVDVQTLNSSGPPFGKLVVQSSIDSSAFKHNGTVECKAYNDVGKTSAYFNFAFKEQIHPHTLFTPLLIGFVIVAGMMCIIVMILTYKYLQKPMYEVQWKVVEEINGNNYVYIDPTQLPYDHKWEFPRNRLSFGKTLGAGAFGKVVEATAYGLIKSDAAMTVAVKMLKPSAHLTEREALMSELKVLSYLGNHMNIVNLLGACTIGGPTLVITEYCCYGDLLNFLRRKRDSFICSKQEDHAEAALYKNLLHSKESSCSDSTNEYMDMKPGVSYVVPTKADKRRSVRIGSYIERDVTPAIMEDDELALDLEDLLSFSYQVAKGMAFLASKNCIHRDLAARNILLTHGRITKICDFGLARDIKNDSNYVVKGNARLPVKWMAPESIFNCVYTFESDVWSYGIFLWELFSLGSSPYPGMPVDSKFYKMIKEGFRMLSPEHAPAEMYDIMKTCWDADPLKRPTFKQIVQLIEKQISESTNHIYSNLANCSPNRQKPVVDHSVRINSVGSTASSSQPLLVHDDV

B1: anti-c-Kit single domain antibody Clone ID # 408366 (VHH)
VHH: EVQLLESGGGLVQPGGSLRLSCAASGLTISTYAMSWVRQAPGKGLEWVSAISTGGSSTYYADSVKGRFTISRDNSKNTLYLQMNSLRAEDTAVYYCATGYDSSGHYYGGFDYRGQGTLVTVSS
notes: also called F06 family
B2: anti-c-Kit single domain antibody Clone ID # 407921 (VHH)
VHH: B1 VHH with L27F, I29F, S30D, T31S, T53V, G54R, S56G, Y95S, S102P
notes: also called F06 family
B3: anti-c-Kit single domain antibody Clone ID # 408198 (VHH)
VHH: QLQLQESGPGLVKPSETLSLTCTVSGGSISSSSYYWGWIRQPPGKGLEWIGSIDYNGGTYNNPSLKSRVTISVDTSKNQFSLKLSYVTAADTAVYYCARQNPRRYASGASDYRGQGTLVTVSS
notes: also called F18 family
B4: anti-c-Kit single domain antibody Clone ID # 407922 (VHH)
VHH: B1 VHH with T31S, S57R, Y95F
notes: also called F06 family
B5: anti-c-Kit single domain antibody Clone ID # 408389 (VHH)
VHH: B1 VHH with L27F, I29F, S30D, T31S, K43E, S56G, T78M, Y80F, Y95S, H105Y
notes: also called F06 family

Biological target: T2, recombinant human c-Kit (Acro Biosystems, #CD7-H52H4) (human, UniProt P10721 26-520)
T2 construct: Bought protein; It was loaded on Ni-NTA sensors for binning, so it probably carries a His tag; also called antigen
Assay: BLI (Octet HTX), antibody on AHC sensors, c-Kit in solution, 1:1 model
Procedure: Table E3 summarizes affinity and epitope bin information for example anti-c-Kit single domain antibodies of the present disclosure. The affinity of each single domain antibody to recombinant human c-Kit (Acro Biosystems, #CD7-H52H4) was measured by Bio-layer interferometry (BLI) using an Octet HTX. AHC (Anti-hIgG Fc Capture) sensors were used to immobilize test antibody at 5 μg/mL. After baseline readings, sensors were dipped into antigen solutions (starting at 500 nM followed by a 7-point, 2-fold dilution series). Association and dissociation were measured for 180 and 240 seconds, respectively. Data were analyzed with Octet Data Analysis v11.0 HT (ForteBio) using a standard 1:1 binding model. Epitope bins for the single domain antibodies were determined by an in-tandem competition BLI binding experiment using an Octet HTX. The antigen (5 μg/mL) was loaded on the sensor Ni-NTA sensor, followed by a baseline in kinetic buffer. The antigen coated sensor was then dipped into a saturating concentration Antibody 1. A second baseline was then set for 300 seconds. The antigen-Antibody 1 complex was dipped into Antibody 2 solution for 180 seconds and then allowed to dissociate.

| Kd | Binder |
| --- | --- |
| 4.71 nM | B1 |
| 2.77 nM | B2 |
| 7.28 nM | B3 |

Biological target: T3, human c-Kit expressed on NOMO-1 cells (human, UniProt P10721 26-976)
T3 construct: Endogenous c-Kit of the NOMO-1 AML cell line
Assay: flow cytometry cell binding dose curve, NOMO-1 cells expressing human c-Kit
Procedure: (§1) The single domain antibodies were tested at a starting concentration of 50 nM, followed by 5-fold serial dilutions for an 8-point dose curve. All washes and dilutions of cells, antibodies, and reagents were performed using flow buffer (lx phosphate buffered saline (PBS), 1% bovine serum albumin (BSA), and 0.1% NaN₃). Cells were pelleted and resuspended at 1×10⁶ cells/mL in flow buffer. Then, 50 μL cells were combined with 50 μL of test antibody and incubated 30 minutes at 4° C., followed by two wash steps with flow buffer. Cells were then resuspended in 50 μL PE-conjugated secondary diluted to 1.25 μg/mL (Southern Biotech #2042-09) and incubated for 20 minutes at 4° C. After two wash steps, cells were resuspended in flow buffer and analyzed using a BD Celesta system. PE mean fluorescence intensity was plotted as a fold over background (cells incubated with secondary detection antibody only).
(§2) To determine cell binding EC50 values for example anti-c-Kit single domain antibodies of the present disclosure, cell binding dose curves were performed on SEM cells expressing human GNNK+c-Kit isoform, SEM cells expressing human GNNK− c-Kit isoform, and NOMO-1 cells expressing human c-Kit. The single domain antibodies were tested at a starting dose of 50 nM, followed by 5-fold serial dilutions for an 8-point dose curve as described in Example 2. The transformed data were plotted as an xy-graph using the non-linear regression curve fit (available in GraphPad Prism 8.4.3) to obtain the EC50 values (nM), which are summarized in Table E2.

| EC50 | Binder |
| --- | --- |
| 0.39 nM | B1 |
| 0.26 nM | B2 |
| 0.32 nM | B3 |

Biological target: T4, human c-Kit, GNNK+ isoform, expressed on SEM cells (human, UniProt P10721 26-976)
T4 construct: also called SEM (GNNK+); CD117
Assay: flow cytometry cell binding dose curve, SEM cells expressing human GNNK+ c-Kit
Procedure: as §1, §2

| EC50 | Binder |
| --- | --- |
| 0.08 nM | B1 |
| 0.03 nM | B2 |
| 0.25 nM | B3 |

Biological target: T1, human c-Kit, GNNK- isoform, expressed …
Assay: flow cytometry cell binding dose curve, SEM cells expressing human GNNK- c-Kit

| EC50 | Binder |
| --- | --- |
| 0.09 nM | B1 |
| 0.03 nM | B2 |
| 0.58 nM | B3 |

Biological target: T3, human c-Kit expressed on NOMO-1 cells
Assay: flow cytometry, antibody supernatant on NOMO-1 cells expressing c-Kit, PE secondary
Procedure: (§3) Pelleted cells were resuspended in flow buffer (lx phosphate buffered saline (PBS), 1% bovine serum albumin (BSA), and 0.1% NaN₃) at 1.25×10⁶ cells/mL. Antibody-containing supernatants were diluted 1:5 in flow buffer and 40 μL cells plus 10 μL diluted antibody supernatant were incubated for 30 minutes at 4° C. Cells were washed with flow buffer and resuspended in 50 μL phycoerythrin (PE)-conjugated secondary antibody (Southern Biotech #2042-09) diluted in flow buffer to 1.25 μg/mL and incubated for 20 minutes at 4° C. After two wash steps, cells were resuspended in flow buffer and analyzed using a Guava easyCyte 8HT system. Table E1 summarizes the target binding activity of the anti-c-Kit single domain antibodies as fold over background MFI signal.

| fold over background MFI signal | Binder |
| --- | --- |
| 43.2 fold over background | B1 |
| 31.1 fold over background | B4 |
| 30.5 fold over background | B2 |
| 43.9 fold over background | B5 |
| 45.7 fold over background | B3 |

Biological target: T4, human c-Kit, GNNK+ isoform, expressed …
Assay: flow cytometry, antibody supernatant on SEM cells expressing human c-Kit GNNK+, PE secondary
Procedure: as §3

| fold over background MFI signal | Binder |
| --- | --- |
| 945 fold over background | B1 |
| 829 fold over background | B4 |
| 814 fold over background | B2 |
| 934 fold over background | B5 |
| 388 fold over background | B3 |

Biological target: T1, human c-Kit, GNNK- isoform, expressed …
Assay: flow cytometry, antibody supernatant on SEM cells expressing human c-Kit GNNK-, PE secondary

| fold over background MFI signal | Binder |
| --- | --- |
| 1760 fold over background | B1 |
| 1740 fold over background | B4 |
| 1750 fold over background | B2 |
| 1790 fold over background | B5 |
| 103 fold over background | B3 |
